For this test, the target named is Flag-tagged MAVS wt, Q7Z434. In words: co-IP. Conditions: remark: other sources report otherwise.

The values below come from paper PMC11096414.

Sequence of Flag-tagged MAVS wt, Q7Z434 (Q7Z434 whole entry): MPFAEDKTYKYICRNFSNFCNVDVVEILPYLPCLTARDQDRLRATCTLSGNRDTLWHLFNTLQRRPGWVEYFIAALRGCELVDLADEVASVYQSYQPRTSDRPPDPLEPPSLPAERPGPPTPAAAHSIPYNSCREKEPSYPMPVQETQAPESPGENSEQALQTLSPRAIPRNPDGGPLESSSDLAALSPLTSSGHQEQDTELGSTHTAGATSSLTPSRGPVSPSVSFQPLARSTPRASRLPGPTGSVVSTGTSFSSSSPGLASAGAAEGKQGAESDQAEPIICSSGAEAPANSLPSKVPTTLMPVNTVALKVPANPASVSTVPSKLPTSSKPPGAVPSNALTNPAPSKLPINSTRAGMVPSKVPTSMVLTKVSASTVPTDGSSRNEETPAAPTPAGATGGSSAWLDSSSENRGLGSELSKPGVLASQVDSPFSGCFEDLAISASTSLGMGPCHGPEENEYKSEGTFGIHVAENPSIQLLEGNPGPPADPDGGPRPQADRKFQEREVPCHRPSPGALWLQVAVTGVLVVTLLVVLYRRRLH

B1: GFP-tagged TBK1, Q9UHD2 1-729 (enzyme)
chain: MQSTSNHLWLLSDILGQGATANVFRGRHKKTGDLFAIKVFNNISFLRPVDVQMREFEVLKKLNHKNIVKLFAIEEETTTRHKVLIMEFCPCGSLYTVLEEPSNAYGLPESEFLIVLRDVVGGMNHLRENGIVHRDIKPGNIMRVIGEDGQSVYKLTDFGAARELEDDEQFVSLYGTEEYLHPDMYERAVLRKDHQKKYGATVDLWSIGVTFYHAATGSLPFRPFEGPRRNKEVMYKIITGKPSGAISGVQKAENGPIDWSGDMPVSCSLSRGLQVLLTPVLANILEADQEKCWGFDQFFAETSDILHRMVIHVFSLQQMTAHKIYIHSYNTATIFHELVYKQTKIISSNQELIYEGRRLVLEPGRLAQHFPKTTEENPIFVVSREPLNTIGLIYEKISLPKVHPRYDLDGDASMAKAITGVVCYACRIASTLLLYQELMRKGIRWLIELIKDDYNETVHKKTEVVITLDFCIRNIEKTVKVYEKLMKINLEAAELGEISDIHTKLLRLSSSQGTIETSLQDIDSRLSPGGSLADAWAHQEGTHPKDRNVEKLQVLLNCMTEIYYQFKKDKAERRLAYNEEQIHKFDKQKLYYHATKAMTHFTDECVKKYEAFLNKSEEWIRKMLHLRKQLLSLTNQCFDIEEEVSKYQEYTNELQETLPQKMFTASSGIKHTMTPIYPSSNTLVEMTLGMKKLKEEMEGVVKELAENNHILERFGSLTMDGGLRNVDCL
Regarding B1, the fold reduction of the co-precipitate in the presence of 4-OI (against no 4-OI) stood at 3.7 fold.

B2: GFP-tagged RIG-I, O95786 1-925 (natural protein)
chain: MTTEQRRSLQAFQDYIRKTLDPTYILSYMAPWFREEEVQYIQAEKNNKGPMEAATLFLKFLLELQEEGWFRGFLDALDHAGYSGLYEAIESWDFKKIEKLEEYRLLLKRLQPEFKTRIIPTDIISDLSECLINQECEEILQICSTKGMMAGAEKLVECLLRSDKENWPKTLKLALEKERNKFSELWIVEKGIKDVETEDLEDKMETSDIQIFYQEDPECQNLSENSCPPSEVSDTNLYSPFKPRNYQLELALPAMKGKNTIICAPTGCGKTFVSLLICEHHLKKFPQGQKGKVVFFANQIPVYEQQKSVFSKYFERHGYRVTGISGATAENVPVEQIVENNDIIILTPQILVNNLKKGTIPSLSIFTLMIFDECHNTSKQHPYNMIMFNYLDQKLGGSSGPLPQVIGLTASVGVGDAKNTDEALDYICKLCASLDASVIATVKHNLEELEQVVYKPQKFFRKVESRISDKFKYIIAQLMRDTESLAKRICKDLENLSQIQNREFGTQKYEQWIVTVQKACMVFQMPDKDEESRICKALFLYTSHLRKYNDALIISEHARMKDALDYLKDFFSNVRAAGFDEIEQDLTQRFEEKLQELESVSRDPSNENPKLEDLCFILQEEYHLNPETITILFVKTRALVDALKNWIEGNPKLSFLKPGILTGRGKTNQNTGMTLPAQKCILDAFKASGDHNILIATSVADEGIDIAQCNLVILYEYVGNVIKMIQTRGRGRARGSKCFLLTSNAGVIEKEQINMYKEKMMNDSILRLQTWDEAVFREKILHIQTHEKFIRDSQEKPKPVPDKENKKLLCRKCKALACYTADVRVIEECHYTVLGDAFKECFVSRPHPKPKQFSSFEKRAKIFCARQNCSHDWGIHVKYKTFEIPVIKIESFVVEDIATGVQTLYSKWKDFHFEKIPFDPAEMSK
Consider B2, for which the fold reduction of the co-precipitate in the presence of 4-OI (against no 4-OI) came out at 1.6 fold.
